Laboratory results from patent US20140314667A1, “METHODS OF TREATING EPIDERMAL GROWTH FACTOR DELETION MUTANT VIII RELATED DISORDERS” (AMGEN INC., priority 2011, published 2014).

T1: OVA (Gallus gallus, UniProt P01012)
T1 sequence (P01012 1-386): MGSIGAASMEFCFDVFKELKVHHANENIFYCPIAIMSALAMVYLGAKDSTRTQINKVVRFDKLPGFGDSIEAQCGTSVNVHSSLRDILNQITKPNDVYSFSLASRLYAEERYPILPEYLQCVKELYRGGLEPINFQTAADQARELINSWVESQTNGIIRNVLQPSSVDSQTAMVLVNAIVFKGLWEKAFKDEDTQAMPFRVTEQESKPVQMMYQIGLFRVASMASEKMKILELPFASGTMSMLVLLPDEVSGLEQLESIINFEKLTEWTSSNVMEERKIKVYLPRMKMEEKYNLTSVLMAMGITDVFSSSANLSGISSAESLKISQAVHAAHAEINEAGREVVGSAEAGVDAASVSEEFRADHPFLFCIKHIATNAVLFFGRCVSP


Legend:
EGFRvIII-peptide-OVA = molecular target: T2, EGFRvIII-peptide-OVA (Homo sapiens, UniProt P00533, DELINS30-297G); assay: B-cell culture supernatant ELISA on EGFRvIII-peptide-OVA; format: binding; conditions: for binding with the pep3: XenoMax approach, in words
T2 construct: 207 μg of EGFRvIII PEP3 was reduced; host or cells: synthetic peptide, chemical conjugation
Method: B-cells from the above-discussed animals were harvested and cultured. Those secreting EGFRvIII-peptide specific antibodies were isolated as described in Babcook et al., Proc. Natl. Acad. Sci. USA, 93:7843-7848 (1996). ELISA was used to identify primary EGFRvIII-peptide-OVA-specific wells. About 5 million B-cells were cultured from XenoMouse animals in 24596 well plates at 500 or 150 or 50 cells/well, and were screened on EGFRvIII-peptide-OVA to identify the antigen-specific wells.
(§1) 244 of EGFRvIII-peptide-OVA-Elisa positive wells of OD >0.5 were screened again on EGFRvIII-peptide-OVA and on OVA to confirm that they were EGFRvIII-peptide specific.

[1] = molecular target: T3, NR6 Wt cells (NR6 cells expressing EGF receptor) (Homo sapiens, UniProt P00533); assay: Native cell binding assay by FMAT, NR6 Wt cells; conditions: for cross-reactivity with wild type EGFR: XenoMax approach, in words
T3 construct: expressed in transfected cells; host or cells: NR6 cells (NR6 Wt)
Description: The same type of native binding assay was done on NR6 Wt cells (NR6 cells expressing EGF receptor) (See Batra et al. Epidermal growth factor ligand-independent, unregulated, cell-transforming potential of a naturally occurring human mutant EGFRvIII gene. Cell Growth Differ. 6(10):1251-9 (1995)) to eliminate the binding is due to binding to Wt receptor (Table 3.8). ABX-EGF was used as a positive control and PK 16.3.1 at the same concentration was used as a negative control antibody. 3 out the 134 NR6 M binders were binding strongly to NR6 Wt cells. 190 of the 244 wells bound EGFRvIII peptide in Elisa were also bound to the native form on cells.
In this example, binding of anti-EGFRvIII antibodies to NR6 M cells was measured. Specifically, unquantitated supernatants of XenoMax derived IgG1 recombinant antibodies were assayed for their ability to bind to NR6 M and NR6 WT cells. Cells were seeded at 10000/well and incubated overnight at 37 C in FMAT 96 well plates. Media was removed and 40 μl mini lipo supernatant (titrated down) was added, the cells were incubated on ice for 1 hr. […] The PK 16.3.1 antibody was used as a negative control. The cells were washed with Cold PBS, secondary antibody was added (SS Alexa antihuman IgG Fc) at 1 μg/ml, 40 μl/well and incubated on ice for 1 hr. The cells were then washed with Cold PBS and fixed and read by FMAT. All antibodies were tested for specificity for binding by counter screening against NR6 WT cells.

[2] = molecular target: T4, EGFRvIII receptor in NR6 M cells (Homo sapiens, UniProt P00533, DELINS30-297G); assay: Internalization of EGFRvIII receptor by recombinant mAbs (FACS); format: cell-based; conditions: 0.25 μg/ml antibody, 1 hr
T4 construct: NR6 M cells stably expressing full length EGFRvIII; expressed in transfected cells; host or cells: NR6 cells (NR6 M)
Method: XenoMax derived IgG1 recombinant antibodies were expressed, purified and quantitated as described previously. Antibodies were further assayed for their ability to internalize the EGFRvIII receptor in NR6 M cells. […] The cells were washed with cold 10% FCS in PBS and secondary antibody (SS Alexa antihuman IgG Fab) at 3 μg/ml Fab was added and incubated for 7 mins on ice. The cells were washed with cold 10% FCS in PBS once and then resuspended in cold media. Next, two sets of the triplicate were incubated at 37° C. and the remaining set was incubated at 4° C. for 1 hr. After that the cells incubated at 4° C. and one set of the cells incubated at 37° C. were treated with glutathione (as previously mentioned) for 1 hr on ice. Then the cells were washed and resuspended in 100 μl of cold 1% FCS in PBS and analyzed by FACS. The % internalization was calculated from the geometric mean obtained from the FACS analysis [(mean at 37° C. with glutathione−mean at 4° C. with glutathione)/(mean at 37° C. without glutathione−mean at 4 C with glutathione)].

OVA = molecular target: T1, OVA; assay: B-cell culture supernatant ELISA on OVA (specificity control); format: binding; conditions: Table 3.8
Description: as §1

[3] = molecular target: T5, native form of EGFRvIII stably expressed on NR6 cells (NR6 M cells) (Homo sapiens, UniProt P00533, DELINS30-297G); assay: Native cell binding assay by FMAT, NR6 M cells; conditions: total fluorescent intensity
T5 construct: NR6 M cells stably expressing full length EGFRvIII; expressed in transfected cells; host or cells: NR6 cells (NR6 M)
Method: EGFRvIII peptide-OVA-Elisa positive well supernatants were analyzed for their ability to bind to the native form of EGFRvIII stably expressed on NR6 cells (NR6 M cells) (See, Batra et al. Epidermal growth factor ligand-independent, unregulated, cell-transforming potential of a naturally occurring human mutant EGFRvIII gene. Cell Growth Differ. 6(10):1251-9 (1995)). NR 6 M cells were seeded at 8000 cells per well and incubated over night in 96 well FMAT plates. Media was then removed leaving 15 μl in the well. 15 μl B-cell culture supernatants were added and 15 μl anti-human IgG Fc Cy5 at 1 μg/ml final concentration added to wells. It is then left incubated at 4° C. for 2 hours. The cells were washed with 150 μl PBS, and fixed before reading on FMAT. The results were expressed as total fluorescent intensity (Table 3.8).

[4] = molecular target: T6, EGFRvIII receptor on NR6 M cells (Homo sapiens, UniProt P00533, DELINS30-297G); assay: Internalization assay (FMAT, glutathione) of B cell culture supernatants; format: cell-based; conditions: for % internalized, (glut+/glut−) × 100 / With glutathione FL1xcount: 37° C. for 30 mins; for With glutathione FL1xcount: 50 mM glutathione; for No glutathione FL1xcount: kept on ice
T6 construct: NR6 M cells stably expressing full length EGFRvIII; expressed in transfected cells; host or cells: NR6 cells (NR6 M)
Method: The top 60 native binding B cell culture supernatants were further assayed for their ability to internalize the receptor. NR6 M cells were seeded at 8000 cells/well into 96 well FMAT plates and incubated overnight. Media was removed and 10-15 μl B-Cell culture supernatant in a total volume of 30 μl media, in duplicate was added. Next, 15 μl of secondary antibody (SS Alexa 647 anti-human IgG Fab at 1.5 μg/ml final concentration) was added and the mixture was incubated on ice for 1 hr. An irrelevant B-Cell Culture supernatant was used to see the effect of the culture media. Human anti-EGFRvIII mAb 13.2.1 was used as a positive control starting at 1 μg/ml (final concentration) and negative control was PK 16.3.1 (human anti-KLH IgG2 antibody) at the same concentration. After incubation, the cells were washed with cold PBS, 50 μl media was added to all of the wells, one of the duplicates were incubated at 37° C. for 30 mins while the other duplicate remained on ice. After the incubations media was removed, 100 ul of cold 50 mM glutathione was added to the set incubated at 37° C. and 100 μl of cold media added to the other set, both sets were then left on ice for 1 hr. The cells were then washed with 100 μl cold PBS and then fixed with 1% paraformaldehyde and read in FMAT. The results were expressed as % internalized, calculated as total fluorescence in the presence of glutathione/total fluorescence in the absence of glutathione×100.

Molecule	binding with the pep3 (EGFRvIII-peptide-OVA)	FACS Geometric mean With glutathione 4° C. [2]	FACS Geometric mean With glutathione 37° C. [2]	% internalized, (glut+/glut−) × 100 [4]	With glutathione FL1xcount [4]	No glutathione FL1xcount [4]	cross-reactivity with wild type EGFR [1]	further results
095: XenoMax derived anti-EGFRvIII antibody, SEQ ID NO: 7/23 (antibody, listed as Homo sapiens, V domains shown) VH: QVQLQESGPFLVKPSQTLSLTCTVSGGSISSGGYYWSWIRQHPGKGLEWIGFIYYRGNTYYNPSLKSRVTISVDTSKNQFSLKLSSVTAADTAVYYCARDGYCSRTGCYGGWFDPWGQGTLVTVSP VL: DIVMTQTPLSSPVTLGQPASISCRSSQSLIHTDGNIYLSWLQQRPGQPPRLLIYKISNRFSGVPDRFSGSGAGTDFTLKISRVEAEDVGVYYCMQGTQFPITFGQGTRLEIK	highly specific	5.13	17.75				limited cross-reactivity with wild type EGFR	
211: XenoMax derived anti-EGFRvIII antibody, SEQ ID NO: 12/28 (antibody, listed as Homo sapiens, V domains shown) VH: QVQLVESGGGVVQPGRSLRLSCVASGFTLSSYGMHWVRQAPGKGLEWVAVTSYDGSKKDYADSAKGRFTISRDNSKNTLYLQMNSLRAEDTAVYYCVSEGYCSSSSCYKYYYYGMDVWGQGTTVTVSS VL: DIVMTQSPLSLPVTPGEPASISCRSSQSLLYRNGNNYLDWYLQRPGQSPQLLIYLGSNRASGVPDRFSGSGSGTDFTLKISRVEAEDVGVYYCMQALQTPRTFGQGTKVEIK		4.78	8.23					
250: XenoMax derived anti-EGFRvIII antibody, SEQ ID NO: 9/26 (antibody, listed as Homo sapiens, V domains shown) VH: EGQLLESGGGWVQPGESLRLSCAASGFTFSSYAMSWVRQAPGKGLEWVSAISGSGGSTNYADSVKGRFTISRDNSKNTLYLQVNSLRVEDTAVYYCAGSSGWSEYWGQGTLVTVSS VL: DIQMTQSPSSLSASVGDSVTITCRTSQGIRKNLGWYQQKPGKAPKRLIYAASSLQSGVPSRFSGSGSGTEFTLTISRLQPEDFATYYCLQHHSYPLTFGGGTRVEIR	highly specific	4.84	8.07				limited cross-reactivity with wild type EGFR	
170: XenoMax derived anti-EGFRvIII antibody, SEQ ID NO: 4/20 (antibody, listed as Homo sapiens, V domains shown) VH: QVQLQQSGPGLVKPSQTLSLTCAISGDSVSSNNAAWNWIRQSPARGLEWLGRTYYRSKWYNDYVVSVKSRITINPDTSKNQFSLQLNSVTPEDTAVYYCVRATAFDYWGQGTLVTVSS VL: AIVLTQTPLSSPVTLGQPASISCRSSQSLVHRDGNTYLSWLQQRPGQPPRLLIYKISNRFSGVPDRFSGSGAGTDFTLKISRVEPDDVGVYYCMHTTQLPWTFGQGTKVEIK		4.67	7.75	52.8%	1236	2342		

Continued, in another order:

binding with the pep3 (EGFRvIII-peptide-OVA)	FACS Geometric mean With glutathione 4° C. [2]	FACS Geometric mean With glutathione 37° C. [2]	% internalized, (glut+/glut−) × 100 [4]	With glutathione FL1xcount [4]	No glutathione FL1xcount [4]	Molecule	cross-reactivity with wild type EGFR [1]	further results
	4.66	7.78				150: XenoMax derived anti-EGFRvIII antibody, SEQ ID NO: 5/21 (antibody, listed as Homo sapiens, V domains shown) VH: QVQLQQSGPGLVKPSQTLSLTCAISGDSVSSYSSAWNWIRQSPSRGLEWLGRAYHRSRWYYEYAVSVKSRINITPDTSKNQFSLQLNSVTPEDTAVYYCARGSRFDYWGQGTLVTVSS VL: DIVMTQTPLSSPVTLGQPASISCRSSQSLVHRDGNTYLSWLQQRPGQPPRLLIYKISNRFSGVPDRFSGSGAGTDFTLKISRVEAEDVGIYFCMHTTQFPWTFGQGTRVEIK		
			37.1%	13293	35820	333: XenoMax derived anti-EGFRvIII antibody, SEQ ID NO: 17/32 (antibody, listed as Homo sapiens, V domains shown) VH: QVQLVESGGGVVQPGRSLRLSCVASGFTLSSYGMHWVRQALGKGLEWVAVTSYDGSKKDYADSVKGRFTISRDNSKNTLYLQMNSLRAEDTAVYYCVSEGYCDSTSCYKYYYYGMDVWGQGTTVTVSS VL: DIVMTQSPLSLPVTPGEPASISCRSSQSLLYRNGNNYLDWYLQRPGQSPQLLIYLGSNRASGVPDRFSGSGSGTDFTLKISRVEAEDVGVYYCMQALQTPRTFGQGTKVEIK		1′ VIII-pep-OVA OD (EGFRvIII-peptide-OVA; Table 3.8): 0.8555; 2′ VIII-pep-OVA OD (EGFRvIII-peptide-OVA; Table 3.8): 1.2070; OVA OD (OVA): 0.1649; FMAT native binding to NR6 M cells [3]: 109379; FMAT native binding to NR6 Wt cells ([1]; total fluorescent intensity): 0
